Data reported in patent US20180193486A1, “COMPOSITIONS AND METHODS FOR TREATMENT OF AUTOIMMUNE AND OTHER DISEASE” (priority 2010, published 2018).

Target: reconstituted human albumin (Homo sapiens, UniProt P02768)
Assay: Release of CPT in reconstituted human albumin (PBS solution)
Format: in vitro ADME
Conditions: compared with PBS
Procedure: This solution was added to a lyophilized powder of human plasma to reconstitute 100% human plasma by the recommended amount. The solution was divided into equal volume (250 μL) to 1.5 mL Eppendorf tubes, incubated at 37° C., and stopped at selected time point. Samples were stored at −80° C. until the analysis. Samples were separated from plasma by solid phase extraction columns. The solid phase extraction cartridge (Oasis HLB 1 cc cartridge from Waters) was pre-conditioned with 1 mL of acetonitrile and then with 1 mL of 8.5% H3PO4 before loading. Samples were acidified with equal volume of 8.5% H3PO4 prior to loading. After the acidified solution was loaded on the cartridge, the bed was washed with 3×1 mL of water. Released CPT and polymer conjugate were eluted with 3×1 mL of a solution mixture of acetonitrile and potassium phosphate buffer (pH 4.1) (60/40 v/v). The eluted solution was diluted to 5 mL total volume in a 5 mL volumetric flask. 30 μL of such solution was injected into the HPLC. The peak area from the CPT lactone form was integrated and compared to a standard curve.

Chain of reconstituted human albumin (P02768 25-609): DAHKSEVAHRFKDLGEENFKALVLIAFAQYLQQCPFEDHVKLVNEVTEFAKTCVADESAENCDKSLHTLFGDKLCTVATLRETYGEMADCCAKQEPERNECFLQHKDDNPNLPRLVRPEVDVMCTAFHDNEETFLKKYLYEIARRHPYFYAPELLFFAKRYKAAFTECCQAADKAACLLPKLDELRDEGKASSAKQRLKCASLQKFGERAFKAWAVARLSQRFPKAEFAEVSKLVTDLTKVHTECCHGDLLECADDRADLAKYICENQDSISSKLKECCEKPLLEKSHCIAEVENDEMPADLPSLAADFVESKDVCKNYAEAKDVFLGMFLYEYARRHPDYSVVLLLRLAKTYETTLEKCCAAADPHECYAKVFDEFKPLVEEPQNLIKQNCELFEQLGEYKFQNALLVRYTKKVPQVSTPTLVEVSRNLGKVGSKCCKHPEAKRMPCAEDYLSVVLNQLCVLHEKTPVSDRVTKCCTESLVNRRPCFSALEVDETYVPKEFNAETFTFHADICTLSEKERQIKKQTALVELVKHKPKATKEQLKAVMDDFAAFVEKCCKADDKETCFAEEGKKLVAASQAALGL

| Substance | CPT release rate in the presence of albumin |
| --- | --- |
| Poly(CDDCys-PA-PEG)-Gly-CPT [HG6] | on the same order of magnitude as in PBS |
| Poly(CDDCys-PA-PEG)-GlyGlyGly-CPT [HGGG6] | on the same order of magnitude as in PBS |
